In US20090155239A1, “Novel Protease, Microorganism Producing the Same, and Application Thereof” (SODX CO., LTD., priority 2005, published 2009):
Read-outs that look alike come from different tables or passages of the source. Where a SMILES comes first, the peptide text is derived from it. [ ]: non-standard residue; d: D form. The star is where a group is joined. Sta = CC(C)C[C@H](N)[C@@H](O)CC(=O)O; Isovaleryl = CC(C)CC(=O)*

Key:
[1] = test system: protease of the present invention; type: biochemical, Fusarium sp. strain BLB; conditions: for Relative Activity (%): pH 5
[2] = Synthetic substrate method, substrate specificity; type: biochemical; conditions: substrate Bz-L-Arg-pNA
[3] = test system: fibrin; assay: Fibrin plate method; type: biochemical, bovine
[4] = test system: Hammarsten casein; assay: Casein method; type: biochemical; conditions: final purified product of Example 2
Method: A 0.5 ml quantity of sample (protease solution) is added to 1.5 ml of Hammarsten casein solution, prepared using 100 mM boric acid buffer (pH 10) so as to have a final concentration of 1 wt. %, and a reaction is carried out at 37° C. for 10 minutes. The reaction is terminated by adding 2 ml of 0.44 M trichloroacetic acid solution. After allowing the reaction mixture to stand for 20 minutes, the precipitate is filtered off. Five milliliters of 0.44 M aqueous sodium carbonate solution and 1 ml of phenol reagent (containing, per 100 ml, 9.1 g of sodium tungstate dihydrate, 2.3 g of sodium molybdate dihydrate, 4.5 ml of phosphoric acid, 9.1 ml of hydrochloric acid, and 13.6 g of lithium sulfate) are added in that order. After allowing the resulting mixture to stand for 20 minutes, the absorbance at an absorption wavelength of 660 nm is measured. In the above measurement, the amount of enzyme that liberates, per minute, an acid-soluble protein hydrolysate corresponding to 1 μg of tyrosine is defined as 1 unit.

[5] = substrate H-D-Ile-Pro-Arg-pNA, taken as 100
[6] = substrate H-D-Val-Leu-Lys-pNA; H-D-Ile-Pro-Arg-pNA taken as 100
[7] = substrate Suc-Ala-Ala-Pro-Leu-pNA; H-D-Ile-Pro-Arg-pNA taken as 100
[8] = substrate Suc-Ala-Ala-Pro-Phe-pNA; H-D-Ile-Pro-Arg-pNA taken as 100
[9] = substrate Gle-Phe-pNA; H-D-Ile-Pro-Arg-pNA taken as 100
[10] = test system: mice; assay: Acute toxicity test on mice

c1ccc(-c2ccccn2)nc1 [2,2′-Bipyridyl]
Relative Activity (%) [1]: 97%

CC(C)C[C@H](NC(=O)[C@H]1O[C@@H]1C(=O)O)C(=O)NCCCCN=C(N)N [E-64, t-epoxysuccinyl-L-leucylamide(4-guanidino)butane]
Relative Activity (%) [1]: 97%

O=C(O)CN(CCN(CC(=O)O)CC(=O)O)CC(=O)O [EDTA, ethylenediaminetetraacetic acid]
Relative Activity (%) [1]: 100%

O=S(=O)(F)Cc1ccccc1 [PMSF, phenylmethylsulfonyl fluoride]
inhibition of the protease (in words) [1]: inhibited
Relative Activity (%) [1]: 59%

CC(C)CC(=O)N[C@H](C(=O)N[C@H](C(=O)N[C@@H](CC(C)C)[C@@H](O)CC(=O)N[C@@H](C)C(=O)N[C@@H](CC(C)C)[C@@H](O)CC(=O)O)C(C)C)C(C)C [Pepstatin] (Isovaleryl-VV[Sta]A[Sta]-OH)
Relative Activity (%) [1]: 100%

c1cnc2c(c1)ccc1cccnc12 [Phenanthroline]
Relative Activity (%) [1]: 100%

NCCCCCC(=O)O [ε-ACA, ε-aminocaproic acid]
Relative Activity (%) [1]: 100%

Chimostatin
Relative Activity (%) [1]: 100%

Streptomyces pepsin inhibitor [SPI]
Relative Activity (%) [1]: 100%

B1: protease of the present invention: novel trypsin-type serine protease from Fusarium sp. strain BLB, about 27000 on SDS-PAGE, amino acid sequence SEQ ID NO: 1 (protein, listed as Fusarium sp.)
chain: MVKFATIVALVAPLVAARPQDRPLIVGGTAASAGDFPFIVSISYQGGPWCGGTLLNANTVLTAAHCTSGRAASAFQVRAGSLNRNSGGVTSSVSSIRIHPSFSSSTLNNDVSILKLSTPIASSSTISYGRLAASGSDPAAGSSATVAGWGATAQGSPSSPVALRKVTIPIVSRATCRAQYGTSAITTNMFCAGLEEGGKDSCQGDSGGPIVDTSNTVIGIVSWGEGCAQPNFSGVYARVGTLRSYIDGQL
degrading activity on synthetic substrate (in words) [2]: has degrading activity
Relative Activity (%) ([2]; H-D-Ile-Pro-Arg-pNA taken as 100): 2.8%
fibrinolytic activity (in words) [3]: strong fibrinolytic activity
protease activity by the casein method [4]: 634 U/mg
Relative Activity (%) [5]: 100%
Relative Activity (%) [6]: 21%
Relative Activity (%) [7]: 0%
Relative Activity (%) [8]: 0%
Relative Activity (%) [9]: 0%
safety in acute toxicity test [10]: demonstrated the safety

B2: Streptomyces subtilisin inhibitor (protein)
chain: DAPSALYAPSALVLTVGKGVSATTAAPERAVTLTCAPGPSGTHPAAGSACADLAAVGGDLNALTRGEDVMCPMVYDPVLLTVDGVWQGKRVSYERVFSNECEMNAHGSSVFAF
Relative Activity (%) [1]: 100%

B3: soybean trypsin inhibitor (protein)
chain: DFVLDNEGNPLENGGTYYILSDITAFGGIRAAPTGNERCPLTVVQSRNELDKGIGTIISSPYRIRFIAEGHPLSLKFDSFAVIMLCVGIPTEWSVVEDLPEGPAVKIGENKDAMDGWFRLERVSDDEFNNYKLVFCPQQAEDDKCGDIGISIDHDDGTRRLVVSKNKPLVVQFQKLDKESL
inhibition of the protease (in words) [1]: not inhibited
Relative Activity (%) [1]: 100%
